Data reported in patent US10800813 (Bicycle, dated 2020).
Where two headings read alike, the source gives them in different places. Numbered stars: 1 amine (or outer) side, 2 acyl side, 3 side chain; on linkers, the order of the positions; unused ones are H or OH. Bridge positions count the residues as written; N and C are the ends. Square brackets hold non-standard residues; d marks the D form. Ends that are not written are not given here. Ind = L-indoline-2-carboxylic acid, O=C([C@@H]1Cc2ccccc2N1[*:1])[*:2]; Bip = N[C@@H](Cc1ccc(-c2ccccc2)cc1)C(=O)O; Tpi = O=C(O)[C@@H]1Cc2c([nH]c3ccccc23)CN1; Dip = N[C@H](C(=O)O)C(c1ccccc1)c1ccccc1; 1Nal = N[C@@H](Cc1cccc2ccccc12)C(=O)O; 2Nal = N[C@@H](Cc1ccc2ccccc2c1)C(=O)O; TBMB = c1c(C[*:1])cc(C[*:3])cc1C[*:2]; Hyp = O=C(O)[C@@H]1C[C@@H](O)CN1; 3Pal = N[C@@H](Cc1cccnc1)C(=O)O; 4Pal = N[C@@H](Cc1ccncc1)C(=O)O; Tic = O=C(O)[C@@H]1Cc2ccccc2CN1; Cha = N[C@@H](CC1CCCCC1)C(=O)O; 4FluoPro = 4-fluoroproline; Pip = O=C(O)[C@@H]1CCCCN1; Aze = O=C(O)[C@@H]1CCN1; Aib = CC(C)(N)C(=O)O

B1: Ac-(06-34-18) Cha2 (peptide)
peptide: Ac-CS[Cha]PARCLHQDLC-NH2
modifications: linker 1-7-13 via TBMB
SMILES: CC(=O)N[C@H]1CSCc2cc3cc(c2)CSC[C@H](NC(=O)[C@H](CCCNC(=N)N)NC(=O)[C@H](C)NC(=O)[C@@H]2CCCN2C(=O)[C@H](CC2CCCCC2)NC(=O)[C@H](CO)NC1=O)C(=O)N[C@@H](CC(C)C)C(=O)N[C@@H](Cc1c[nH]cn1)C(=O)N[C@@H](CCC(N)=O)C(=O)N[C@@H](CC(=O)O)C(=O)N[C@@H](CC(C)C)C(=O)N[C@H](C(N)=O)CSC3
B2: Ac-(06-34-18) HyP3 (peptide)
peptide: Ac-CSW[Hyp]ARCLHQDLC-NH2
modifications: linker 1-7-13 via TBMB
SMILES: CC(=O)N[C@H]1CSCc2cc3cc(c2)CSC[C@H](NC(=O)[C@H](CCCNC(=N)N)NC(=O)[C@H](C)NC(=O)[C@@H]2C[C@@H](O)CN2C(=O)[C@H](Cc2c[nH]c4ccccc24)NC(=O)[C@H](CO)NC1=O)C(=O)N[C@@H](CC(C)C)C(=O)N[C@@H](Cc1c[nH]cn1)C(=O)N[C@@H](CCC(N)=O)C(=O)N[C@@H](CC(=O)O)C(=O)N[C@@H](CC(C)C)C(=O)N[C@H](C(N)=O)CSC3
B3: Ac-(06-34-18) 3Pal2 (peptide)
peptide: Ac-CS[3Pal]PARCLHQDLC-NH2
modifications: linker 1-7-13 via TBMB
SMILES: CC(=O)N[C@H]1CSCc2cc3cc(c2)CSC[C@H](NC(=O)[C@H](CCCNC(=N)N)NC(=O)[C@H](C)NC(=O)[C@@H]2CCCN2C(=O)[C@H](Cc2cccnc2)NC(=O)[C@H](CO)NC1=O)C(=O)N[C@@H](CC(C)C)C(=O)N[C@@H](Cc1c[nH]cn1)C(=O)N[C@@H](CCC(N)=O)C(=O)N[C@@H](CC(=O)O)C(=O)N[C@@H](CC(C)C)C(=O)N[C@H](C(N)=O)CSC3
B4: Ac-(06-34-18) NorHar2 (peptide)
peptide: Ac-CS[Tpi]PARCLHQDLC-NH2
modifications: linker 1-7-13 via TBMB
SMILES: CC(=O)N[C@H]1CSCc2cc3cc(c2)CSC[C@H](NC(=O)[C@H](CCCNC(=N)N)NC(=O)[C@H](C)NC(=O)[C@@H]2CCCN2C(=O)[C@@H]2Cc4c([nH]c5ccccc45)CN2C(=O)[C@H](CO)NC1=O)C(=O)N[C@@H](CC(C)C)C(=O)N[C@@H](Cc1c[nH]cn1)C(=O)N[C@@H](CCC(N)=O)C(=O)N[C@@H](CC(=O)O)C(=O)N[C@@H](CC(C)C)C(=O)N[C@H](C(N)=O)CSC3
B5: Ac-(06-34-18) Pip3 (peptide)
peptide: Ac-CSW[Pip]ARCLHQDLC-NH2
modifications: linker 1-7-13 via TBMB
SMILES: CC(=O)N[C@H]1CSCc2cc3cc(c2)CSC[C@H](NC(=O)[C@H](CCCNC(=N)N)NC(=O)[C@H](C)NC(=O)[C@@H]2CCCCN2C(=O)[C@H](Cc2c[nH]c4ccccc24)NC(=O)[C@H](CO)NC1=O)C(=O)N[C@@H](CC(C)C)C(=O)N[C@@H](Cc1c[nH]cn1)C(=O)N[C@@H](CCC(N)=O)C(=O)N[C@@H](CC(=O)O)C(=O)N[C@@H](CC(C)C)C(=O)N[C@H](C(N)=O)CSC3
B6: Ac-(06-34-18) Aze3 (peptide)
peptide: Ac-CSW[Aze]ARCLHQDLC-NH2
modifications: linker 1-7-13 via TBMB
SMILES: CC(=O)N[C@H]1CSCc2cc3cc(c2)CSC[C@H](NC(=O)[C@H](CCCNC(=N)N)NC(=O)[C@H](C)NC(=O)[C@@H]2CCN2C(=O)[C@H](Cc2c[nH]c4ccccc24)NC(=O)[C@H](CO)NC1=O)C(=O)N[C@@H](CC(C)C)C(=O)N[C@@H](Cc1c[nH]cn1)C(=O)N[C@@H](CCC(N)=O)C(=O)N[C@@H](CC(=O)O)C(=O)N[C@@H](CC(C)C)C(=O)N[C@H](C(N)=O)CSC3
notes: also called Ac-06-34-18(TMB)-NH2 Aze3
B7: Ac-(06-34-18) 2NAL2 (peptide)
peptide: Ac-CS[2Nal]PARCLHQDLC-NH2
modifications: linker 1-7-13 via TBMB
SMILES: CC(=O)N[C@H]1CSCc2cc3cc(c2)CSC[C@H](NC(=O)[C@H](CCCNC(=N)N)NC(=O)[C@H](C)NC(=O)[C@@H]2CCCN2C(=O)[C@H](Cc2ccc4ccccc4c2)NC(=O)[C@H](CO)NC1=O)C(=O)N[C@@H](CC(C)C)C(=O)N[C@@H](Cc1c[nH]cn1)C(=O)N[C@@H](CCC(N)=O)C(=O)N[C@@H](CC(=O)O)C(=O)N[C@@H](CC(C)C)C(=O)N[C@H](C(N)=O)CSC3
B8: Ac-(06-34-18) 4Pal2 (peptide)
peptide: Ac-CS[4Pal]PARCLHQDLC-NH2
modifications: linker 1-7-13 via TBMB
SMILES: CC(=O)N[C@H]1CSCc2cc3cc(c2)CSC[C@H](NC(=O)[C@H](CCCNC(=N)N)NC(=O)[C@H](C)NC(=O)[C@@H]2CCCN2C(=O)[C@H](Cc2ccncc2)NC(=O)[C@H](CO)NC1=O)C(=O)N[C@@H](CC(C)C)C(=O)N[C@@H](Cc1c[nH]cn1)C(=O)N[C@@H](CCC(N)=O)C(=O)N[C@@H](CC(=O)O)C(=O)N[C@@H](CC(C)C)C(=O)N[C@H](C(N)=O)CSC3
B9: Ac-(06-34-18) Tic3 (peptide)
peptide: Ac-CSW[Tic]ARCLHQDLC-NH2
modifications: linker 1-7-13 via TBMB
SMILES: CC(=O)N[C@H]1CSCc2cc3cc(c2)CSC[C@H](NC(=O)[C@H](CCCNC(=N)N)NC(=O)[C@H](C)NC(=O)[C@@H]2Cc4ccccc4CN2C(=O)[C@H](Cc2c[nH]c4ccccc24)NC(=O)[C@H](CO)NC1=O)C(=O)N[C@@H](CC(C)C)C(=O)N[C@@H](Cc1c[nH]cn1)C(=O)N[C@@H](CCC(N)=O)C(=O)N[C@@H](CC(=O)O)C(=O)N[C@@H](CC(C)C)C(=O)N[C@H](C(N)=O)CSC3
B10: Ac-(06-34-18) 3,3-DPA2 (peptide)
peptide: Ac-CS[Dip]PARCLHQDLC-NH2
modifications: linker 1-7-13 via TBMB
SMILES: CC(=O)N[C@H]1CSCc2cc3cc(c2)CSC[C@H](NC(=O)[C@H](CCCNC(=N)N)NC(=O)[C@H](C)NC(=O)[C@@H]2CCCN2C(=O)[C@H](C(c2ccccc2)c2ccccc2)NC(=O)[C@H](CO)NC1=O)C(=O)N[C@@H](CC(C)C)C(=O)N[C@@H](Cc1c[nH]cn1)C(=O)N[C@@H](CCC(N)=O)C(=O)N[C@@H](CC(=O)O)C(=O)N[C@@H](CC(C)C)C(=O)N[C@H](C(N)=O)CSC3
B11: Ac-(06-34-18) NorHar3 (peptide)
peptide: Ac-CSW[Tpi]ARCLHQDLC-NH2
modifications: linker 1-7-13 via TBMB
SMILES: CC(=O)N[C@H]1CSCc2cc3cc(c2)CSC[C@H](NC(=O)[C@H](CCCNC(=N)N)NC(=O)[C@H](C)NC(=O)[C@@H]2Cc4c([nH]c5ccccc45)CN2C(=O)[C@H](Cc2c[nH]c4ccccc24)NC(=O)[C@H](CO)NC1=O)C(=O)N[C@@H](CC(C)C)C(=O)N[C@@H](Cc1c[nH]cn1)C(=O)N[C@@H](CCC(N)=O)C(=O)N[C@@H](CC(=O)O)C(=O)N[C@@H](CC(C)C)C(=O)N[C@H](C(N)=O)CSC3
B12: Ac-(06-34-18) Ind3 (peptide)
peptide: Ac-CSW[Ind]ARCLHQDLC-NH2
modifications: linker 1-7-13 via TBMB
SMILES: CC(=O)N[C@H]1CSCc2cc3cc(c2)CSC[C@H](NC(=O)[C@H](CCCNC(=N)N)NC(=O)[C@H](C)NC(=O)[C@@H]2Cc4ccccc4N2C(=O)[C@H](Cc2c[nH]c4ccccc24)NC(=O)[C@H](CO)NC1=O)C(=O)N[C@@H](CC(C)C)C(=O)N[C@@H](Cc1c[nH]cn1)C(=O)N[C@@H](CCC(N)=O)C(=O)N[C@@H](CC(=O)O)C(=O)N[C@@H](CC(C)C)C(=O)N[C@H](C(N)=O)CSC3
B13: Ac-(06-34-18) Aib3 (peptide)
peptide: Ac-CSW[Aib]ARCLHQDLC-NH2
modifications: linker 1-7-13 via TBMB
SMILES: CC(=O)N[C@H]1CSCc2cc3cc(c2)CSC[C@H](NC(=O)[C@H](CCCNC(=N)N)NC(=O)[C@H](C)NC(=O)C(C)(C)NC(=O)[C@H](Cc2c[nH]c4ccccc24)NC(=O)[C@H](CO)NC1=O)C(=O)N[C@@H](CC(C)C)C(=O)N[C@@H](Cc1c[nH]cn1)C(=O)N[C@@H](CCC(N)=O)C(=O)N[C@@H](CC(=O)O)C(=O)N[C@@H](CC(C)C)C(=O)N[C@H](C(N)=O)CSC3
B14: Ac-(06-34-18) 4,4,BPal2 (peptide)
peptide: Ac-CS[Bip]PARCLHQDLC-NH2
modifications: linker 1-7-13 via TBMB
SMILES: CC(=O)N[C@H]1CSCc2cc3cc(c2)CSC[C@H](NC(=O)[C@H](CCCNC(=N)N)NC(=O)[C@H](C)NC(=O)[C@@H]2CCCN2C(=O)[C@H](Cc2ccc(-c4ccccc4)cc2)NC(=O)[C@H](CO)NC1=O)C(=O)N[C@@H](CC(C)C)C(=O)N[C@@H](Cc1c[nH]cn1)C(=O)N[C@@H](CCC(N)=O)C(=O)N[C@@H](CC(=O)O)C(=O)N[C@@H](CC(C)C)C(=O)N[C@H](C(N)=O)CSC3
B15: Ac-(06-34-18) 1NAL2 (peptide)
peptide: Ac-CS[1Nal]PARCLHQDLC-NH2
modifications: linker 1-7-13 via TBMB
SMILES: CC(=O)N[C@H]1CSCc2cc3cc(c2)CSC[C@H](NC(=O)[C@H](CCCNC(=N)N)NC(=O)[C@H](C)NC(=O)[C@@H]2CCCN2C(=O)[C@H](Cc2cccc4ccccc24)NC(=O)[C@H](CO)NC1=O)C(=O)N[C@@H](CC(C)C)C(=O)N[C@@H](Cc1c[nH]cn1)C(=O)N[C@@H](CCC(N)=O)C(=O)N[C@@H](CC(=O)O)C(=O)N[C@@H](CC(C)C)C(=O)N[C@H](C(N)=O)CSC3

How the values were obtained:
Assay in all cases: enzyme inhibition assay
[1] = target: T1, human plasma Kallikrein (human, UniProt P03952 20-638, limits assumed)
T1 construct: also called hPK; human PK
T1 sequence (P03952 20-638 limits assumed): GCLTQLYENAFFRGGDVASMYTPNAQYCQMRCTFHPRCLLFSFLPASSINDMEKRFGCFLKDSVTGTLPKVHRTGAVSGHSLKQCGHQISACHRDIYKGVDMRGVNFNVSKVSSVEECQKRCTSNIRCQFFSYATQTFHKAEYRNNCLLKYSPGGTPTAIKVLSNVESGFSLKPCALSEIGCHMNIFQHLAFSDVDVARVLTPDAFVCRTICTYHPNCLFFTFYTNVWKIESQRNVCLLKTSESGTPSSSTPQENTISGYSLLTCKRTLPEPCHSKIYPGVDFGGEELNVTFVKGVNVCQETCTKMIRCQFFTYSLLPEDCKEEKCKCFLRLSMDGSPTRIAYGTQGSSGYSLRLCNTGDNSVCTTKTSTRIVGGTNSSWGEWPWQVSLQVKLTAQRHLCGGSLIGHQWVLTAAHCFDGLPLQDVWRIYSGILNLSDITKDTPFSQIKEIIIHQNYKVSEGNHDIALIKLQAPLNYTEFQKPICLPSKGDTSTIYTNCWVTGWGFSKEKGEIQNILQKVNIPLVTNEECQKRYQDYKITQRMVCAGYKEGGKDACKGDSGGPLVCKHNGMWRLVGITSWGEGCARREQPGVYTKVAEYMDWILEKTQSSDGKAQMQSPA

[2] = target: T1, human plasma Kallikrein; remark: listed apart in the source
[3] = target: T1, human plasma Kallikrein; remark: listed apart in the source
[4] = target: T1, human plasma Kallikrein; remark: listed apart in the source
[5] = target: T2, Rat plasma Kallikrein (rat, UniProt P14272 391-638, limits assumed)
T2 construct: domain: catalytic domain; also called rPK; rat PK
T2 sequence (P14272 391-638 limits assumed): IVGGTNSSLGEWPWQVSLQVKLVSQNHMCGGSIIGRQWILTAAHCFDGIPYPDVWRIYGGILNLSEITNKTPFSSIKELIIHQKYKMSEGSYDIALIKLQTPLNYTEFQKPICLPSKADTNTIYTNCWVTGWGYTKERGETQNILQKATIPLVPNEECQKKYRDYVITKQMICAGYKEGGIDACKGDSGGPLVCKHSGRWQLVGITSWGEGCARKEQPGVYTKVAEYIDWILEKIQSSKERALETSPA

Row | Binder | Ki [1] | Ki [2] | also measured
1 | B1 | 4.7 nM | – | –
2 | B2 | – | 0.41 nM | –
3 | B3 | 59 nM | – | –
4 | B4 | 24 nM | – | –
5 | B5 | – | 0.26 nM | –
6 | B6 | – | 0.06 nM | fold increase in affinity against wildtype [3]: 3 fold
7 | B7 | 0.5 nM | – | –
8 | B8 | 72 nM | – | –
9 | B9 | – | 13.5 nM | –
10 | B10 | 1.5 nM | – | –
11 | B11 | – | 2.99 nM | –
12 | Ac-CSW[4FluoPro]ARCLHQDLC-NH2 (linker 1-7-13 via TBMB) [Ac-(06-34-18) 4FluoPro3] | – | 0.24 nM | –
13 | B12 | – | 1.35 nM | –
14 | Ac-CSFP[2Nal]RCLHQDLC-NH2 (linker 1-7-13 via TBMB) [Ac-(06-34-18) Phe2 2Nal4] | – | – | Ki [4]: 7.27 nM
15 | Ac-CSFP[Bip]RCLHQDLC-NH2 (linker 1-7-13 via TBMB) [Ac-(06-34-18) Phe2 4,4-BPal4] | – | – | Ki [4]: 10.5 nM
16 | B13 | – | 1.2 nM | –
17 | B14 | 464 nM | – | –
18 | B15 | 10.7 nM | – | –
19 | ACSWPAKCLHQDLCA (linker 2-8-14 via TBMB, also called WPAK peptide) [06-34-19 (01 + 05 + R/K)] | – | – | IC50 [5]: 4.67 nM
